Laboratory results: US7862994

Molecular target: human CD4 on the surface of cells (HeLa-CD4+, C8166, PM1, primary human CD4+ T lymphocytes) (human) (UniProt P01730)
Assay: cell-based or functional assay

For “HIV-1JR-FL gp120/gp41 expressed on HeLa cells (HeLa-envJR-FL+)”, the % RET, fusion of HeLa-envJR-FL+ with PM1 cells, no inhibitor was 7.5 % RET.
Substance “HIV-1LAI gp120/gp41 expressed on HeLa cells (HeLa-envLAI+) (from UniProt P03377 33-861; P03377 33-861)” has a % RET, fusion of HeLa-envLAI+ with C8166 cells, no inhibitor of 13 % RET and a % RET, fusion of HeLa-envLAI+ with HeLa-CD4+ cells, no inhibitor of 7.3 % RET.
Substance “OKT4 (mouse monoclonal antibody that binds CD4, Ortho Diagnostic Systems)” has a % inhibition of RET at 0.2 µg/ml, HeLa-env+ + HeLa-CD4+ cells, cuvette method of 0% and a % inhibition of RET at 2.0 µg/ml, HeLa-env+ + HeLa-CD4+ cells, cuvette method of 0%.
“murine MAb OKT4a (anti-CD4 monoclonal antibody, Ortho Diagnostic Systems)” showed a % Inhibition of RET, fusion of HeLa-envJR-FL with LW5 primary CD4+ T cells, OKT4A at 3 ug/ml of 100%, a % Inhibition of RET, fusion of HeLa-envLAI with LW5 primary CD4+ T cells, OKT4A at 3 ug/ml of 100% and a % RET, fusion of HeLa-envJR-FL+ with PM1 cells in the presence of OKT4A (0.3 µg/ml) of 0.7 % RET. It also gave a % RET, fusion of HeLa-envLAI+ with C8166 cells in the presence of OKT4A (0.3 µg/ml) of 0.6 % RET, a % RET, fusion of HeLa-envLAI+ with HeLa-CD4+ cells in the presence of OKT4A (0.3 µg/ml) of 0.4 % RET and a % inhibition of RET at 0.2 µg/ml, HeLa-env+ + HeLa-CD4+ cells, cuvette method of 65%.
